B1: LKB1 LFa peptide WT [human] / purified TBC1D23 PH domain (545–684) [human] (parent complex)
chain 1: GADEDEDLFDIEDDIIYTQD
chain 2: YDTDEIDSSSMSDDDRKEVVNIQTWINKPDVKHHFPCKEVKESGHMFPSHLLVTATHMYCLREIVSRKGLAYIQSRQALNSVVKITSKKKHPELITFKYGNSSASGIEILAIERYLIPNAGDATKAIKQQIMKVLDALES

Variants of B1 are the subject of this experiment. Put plainly: ITC; read off a plot. Background: Isothermal titration calorimetry measures the heat released or taken up as one component is titrated into another.
Consider chain 1 F9L, for which the Ka was ~4.6 10^4 M^-1.
For the variant chain 1 F9A, the Ka was ~5 10^4 M^-1.

Source of the values: paper PMC10899256 (2024).
